Source: the nanobody polyreactivity screen of Harvey et al. (2022)

Assay: yeast display, Sf9 membrane polyspecificity reagent, FACS + sequencing; frameworks hold sequencing errors
Method in brief: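 Galactose-induced (36–48 hours) yeast carrying a synthetic nanobody display library were exposed to 10% biotinylated, detergent-solubilized Sf9 membrane reagent at 4 °C for 1 hour. FACS followed streptavidin microbead enrichment, using low and high (top ~1%) gates for expression (anti-HA) and reagent binding (streptavidin). Colony PCR, MiSeq 2 × 250 sequencing and CDR-length filtering followed. Labels for polyreactivity reflect the gate of origin.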

Row | Sequence | polyreactivity (PSR sort gate)
1 | QVQLVESGGGLVQAGGSLRLSCADSGRIIPSYDMGWYRQAPGKERELVAVIRSSVDGTYYADSVKGRFTISRDNAKNTVYLQMNSLKPEDTAVYDCAADSLTPKSASDYWGQGTQVTVSS | low polyreactivity
2 | QVQLVESGGGLVQAGGSLRLSCADSGRTFKFNAMGWYRQAPGKERELVVGITWTGSTTSYADSVKGRFTISRDNAKNTVYLQMNSLKPEDTAVYYCAADKIRFWYHGFYYRGQGTQVTVSS | low polyreactivity
3 | QVQLVESGGGLVQAGGSLRLSCADSGRTFRNYAMGRYRQAPGKERELVATITSSGASTYYADSVKGRFTISRDNAKNTVYLQMNSLKPEDTAVYYCAARPYTGRYFLGYYYWGQGTQVTVSS | high polyreactivity
4 | QVQLVESGGGLVQAGGSLRLSCADSGRTFRRYKMGWYRQAPGKERELVATISSGGSTYADSVKGRFTISRDNAKNTVYLQMNSLKPEDTAVYYCAARYDVAWYSKRYSWGQGTQVTVSS | high polyreactivity
5 | QVQLVESGGGLVQAGGSLRLSCADSGRTFTGYVMGWYRQAPGKEREFVAVIRYRGGGTYYAYSVKGRFTISRDNAKNTVYLQMNSLKPEDTAVYYCSARWRYSYVGDFDYWGQGTQVTVSS | high polyreactivity
6 | QVQLVESGGGLVQAGGSLRLSCADSGRTFTNNAMGWYIQAPGKERELVAAITSGGRTNYADSVKGRFTISRDNAKNTVYLQMNSLKPEDTAVYYCAARIPSDGYYYWGQGTQVTVSS | high polyreactivity
7 | QVQLVESGGGLVQAGGSLRLSCADSGRTFYYYAMGWYRQAPGKERELVASISYSAGRTYADSVKGRFTISRDNAKNTVYLQMNSLKPEDTAVYYCNADVTTVPYTNDYWGQGTQVTVSS | high polyreactivity
8 | QVQLVESGGGLVQAGGSLRLSCADSGRTIRGNAMGWYRQAPGKERELVAAITSSGGGTYYADSVKGRFTISRDNAKNTVYLQMNSLNPEDTAVFYGAAEYRDGYRFSYDYWGQGTQVTVSS | low polyreactivity
9 | QVQLVESGGGLVQAGGSLRLSCADSGRTLGVYAMRWYRQAPGKERELVASISFSGGRTYYADSVKGRFTISRDNAKNTVYLQMNSLKPEDTAVYYCAAGGRVRYQTKYRYGYDYWGQGTQVTVSS | low polyreactivity
10 | QVQLVESGGGLVQAGGSLRLSCADSGSGGYAMGWYRQAPGKERELVAAIDNGGSTYYADSVKGRFTISRDNAKNTVYLQMNSLKPEDTAVYYCAAAYRDYTQVTAGDYWGQGTQVTVSS | low polyreactivity
11 | QVQLVESGGGLVQAGGSLRLSCADSGSIFAGNAMGWYRQAPGKERELVAAISRRGGSTYYADSVKGRFTISRDNAKNTVYLQMNSLKPEDTAVYYCNALLRYAYHAAYGYWGQGTQVTVSS | high polyreactivity
12 | QVQLVESGGGLVQAGGSLRLSCADSGSIFAYNGMGWKRQAPGKERELVAAISRGGRTSYADSVKGRFTISRDNAKNTVYLQMNSVKPEDTAVYYCNAVYRWFSSAYVYSSGYNGDYWGQGTQVTVSS | high polyreactivity
13 | QVQLVESGGGLVQAGGSLRLSCADSGSIFGYYAMGRYRQAPGKERELVAAISDGGTITYYADSVKGRFTISRDNAKNTVYLQMNSLKPEDTAVYYCAARSPPRYYEHSYYYWGQGTQETVSS | high polyreactivity
14 | QVQLVESGGGLVQAGGSLRLSCADSGSIFQPYAMGWYRQAPGKERELVAAINGRGGSTHYADSVKGRFTISRDNEKNSVYLQMNSLKPEDTAVYDCAARYYRDYRWYTYAYDYWGQGTQVTVSS | high polyreactivity
15 | QVQLVESGGGLVQAGGSLRLSCADSGSIFWGYAMGWYRQAPGKERELVAVISRGGSTYYADSVKGRFTISRDNAKNTVYLQMNSLKPEDTAVYYCAASSSWFYSPEYDYWGQGTQVSVSS | low polyreactivity
16 | QVQLVESGGGLVQAGGSLRLSCADSGSIIGINAMGWYRQAPGKERELVAANNGGGSTYYADSVKGRFTISRDNAKNSVYLQMNSLKPEDTAVYYCAAEWGTSWYDYWGQGTQVTVSS | low polyreactivity
17 | QVQLVESGGGLVQAGGSLRLSCADSGSISYYAIGWYRQAPRKESELVAAISSSGGSTYYADSVNGRFTISRDNAKNTVYLQMNSLKPEDTAVYYCAAAVTGCYASDYWGQGTQVTVSS | high polyreactivity
18 | QVQLVESGGGLVQAGGSLRLSCADSGSTFPWYAMGWYRQAHGKERELVADISFSGGSTYYSDSVKGRFTISRDNAKNTVYLQMNSLKPEDTAVYYCASETSFLRHAYQSDSFDYWGQGTQVTVSS | high polyreactivity
19 | QVQLVESGGGLVQAGGSLRLSCADSGSTFRYNAMGWYREAPGKERELVADIRRSGGSTYYADSVKGRFTISRDKAKNTVYLQMNSLKPEDTAVYYCNAAVSRLYYHSYSYRSYYYWGQGTQVTVSS | high polyreactivity
20 | QVQLVESGGGLVQAGGSLRLSCADSGSTFSYYAMGWYRQAPGKEGELVAAISARGGSTNYADSVKGRFTISRDNAKNTVYLQMNSLKPEDTAVYYCAAYDPLVDYFRYAYSDDYWGQGTQVTVSS | high polyreactivity
21 | QVQLVESGGGLVQAGGSLRLSCADSGSTFVSNTMGWYRQAPGKERELVAAISSSGGSTYYADSVKGRFSISRDNAKNTVYLQMNSLKPEDTAVYYCAAYYRAYRRDYYWGQGTQVTVSS | high polyreactivity
22 | QVQLVESGGGLVQAGGSLRLSCADSGSTFWYDMGWYRQAPGKERELVAAISDAGSTYYADSVKGRFTISRDNAKITVYLQMNSLKPEDTGFYFCAADGVYWRWYLYTFWMDYWGQGTQVTVSS | low polyreactivity

Row | Sequence | polyreactivity (PSR sort gate)
23 | QVQLVESGGGLVQAGGSLRLSCADSGYTFGTYAMGWYIKAPGKERELVAAISNSGGSTYYADSVKGRFTISRDNAKNTVYLQMNSLKPEDTAVYYFNTDGLVRNGPFYSWGLGTQVTVSS | low polyreactivity
24 | QVQLVESGGGLVQAGGSLRLSCADSGYTIILYVMGWYRQAPGKERELVAVITLSGGITYYADSVKGRFTISRDNAKNTVYLQMNSLKPEDTAVYYCAVDVYHNRYFTLTSWYHYDSWGQGTQVTVSS | low polyreactivity
25 | QVQLVESGGGLVQAGGSLRLSCADSRSTFYIYAMGWYRQAPGKERELVAAIRRSGGSTYYADSVKGRFTISRDNAKNTVYLQMISLKPEDTAVYYCATRYLWRPRPYDYWGQGTQVTVSS | high polyreactivity
26 | QVQLVESGGGLVQAGGSLRLSCADYGIIFSPYAMGWYRQAPGKERELVAAISYSGGSTYYADSVKGRFTISRDNAKNTVKLQMNSLKPEDTAVYYCAVVYSYYLAVLGYWDYDYWGQGTQVTVSS | low polyreactivity
27 | QVQLVESGGGLVQAGGSLRLSCAGSGFIITQYPMGWYRQAPGKERELVAAISGNGGRTYYADSVKGRFTISRDNAKNTDYLQMNSLKPEDTAVYYCAVTRPGRRYPFGYDYWGQGTQVTVSS | low polyreactivity
28 | QVQLVESGGGLVQAGGSLRLSCAGSGFTFGIYAMGSDRQAPGKERELVAAISSSGGSTYYADSVKGRFTISRDNAKNTVYLQMNSLKPEDTAVYYCAAVNSRRRYWYDYWGQGTQVTVSS | high polyreactivity
29 | QVQLVESGGGLVQAGGSLRLSCAGSGIILYWNTMGWYRHAPGKERELVAAITWSVGRTYYADSVKGRFTISRDNAKNTVYLQMNSLKPEDTAVYYCATTFQYYWFSLYDYWGQGTQVTVSS | low polyreactivity
30 | QVQLVESGGGLVQAGGSLRLSCAGSGRIFTQYAMGWYGQAPGKERELVAAINASDGSTYADSVKGRFTISRDNAKNTVYLQMNSLKPEDTAVYYCNVTGGPYDFTRWSEFDHWGQGTQVTVSS | low polyreactivity
31 | QVQLVESGGGLVQAGGSLRLSCAGSGRIFVSYAMGWYRQAPGKERELVAAITRSGGSTYYADSVKGRFTISRDNAKNTVYLQMNSLKPEDTAVYYCNAYIPRTRYRSGYWGQGTQVTVSS | high polyreactivity
32 | QVQLVESGGGLVQAGGSLRLSCAGSGRTFGRYAMGGYRQAPGKERELVAAIRSGGSTYYADSVKGRFTISRDNAKNTVYFQMNSLKPEDTAVYYCAADSTSLYNYWGQGTQVTVLS | low polyreactivity
33 | QVQLVESGGGLVQAGGSLRLSCAGSGSIFKRYAMGWYRQAPGKERELVAAITSRGGSTYYADSVKGRFTISRDTAKNTVYLQLNSLKPEDTAVYYCAATRSSTNGYDYWGQGTQVTVSS | high polyreactivity
34 | QVQLVESGGGLVQAGGSLRLSCAGSGSTFGGYAMGWYRQAPGKEWELVAAINSGGSTYYADSVKGRFTISRDNAKNTVYLQMNSLKPEDTAVYYCNADSQVIRDYIFDYWGQGTQVTVSS | low polyreactivity
35 | QVQLVESGGGLVQAGGSLRLSCAGSGSTFQRYGMGWYRQAPGKEREFVAAISTSGGITYYADSVKGRFTISRDNAKNTVYLQMNSLKPEDTAVYYCAARTARHVRYWAGWRDYWGQGTQVTVSS | high polyreactivity
36 | QVQLVESGGGLVQAGGSLRLSCAGSGSTLAIYAMGWYRHAPGKERELVAAISGGGSTYADSVKGRFTISRDNAKNTVYLQMISLKPEDTAVYYCNADGWGDRFWSNFRFDYWGQGTQVTVSS | low polyreactivity
37 | QVQLVESGGGLVQAGGSLRLSCAHSASTLQIYAMGWDRQAPGKESELVASISSTTSTNYADSVMGRFTISRDNAKNTVYLQMNSMKPEDTAVYYCARERFGGTDSQVVPWFRFDYDYWGQRTQVTVSS | low polyreactivity
38 | QVQLVESGGGLVQAGGSLRLSCAPCGFTFRRNAMGWYRQAPGKERELVAAINWSGGSTYYADSVKGRFTLSRDNAKNNVYLQMNSLKPEDTAVYYCNRRGQYTFWPIHEYWGQGTQVTVSS | high polyreactivity
39 | QVQLVESGGGLVQAGGSLRLSCAPSAFTFKYYSMGWYRHTPGKESELVAVISWSGGSTYYADSVKGRFTISRDYAKNTVYLHMNSQKPEDTAVYYCAAYERKFYTVSRWYKLDYWGQGTQVTVSS | high polyreactivity
40 | QVQLVESGGGLVQAGGSLRLSCAPSGCTLGAYAMGWYRQAPGKVRELVADISSRGASTYYEDSVKGRFTISRDHAKNTVYIQMNSLKPEDTAVYDCARAVYIWYGYGYFPEYEYWGQGTQVTVSS | low polyreactivity
41 | QVQLVESGGGLVQAGGSLRLSCAPSGFIFIRYAMGWYRQAPGKERELVASISWRGESTYYADSVKWRFTISRDNAKNTVYLQRNILKPEDTAVYYCAATGINSGPGRMDYWGQGTQVTVSS | high polyreactivity
42 | QVQLVESGGGLVQAGGSLRLSCAPSGFIFYTNAMGWYRQAPGKDRELVAAITCIGVSTYYADSVKGRFTISRDYAKNTVYLKMNSLKPEDTEVYYCAADRNFLIFTPDNLTMDYWGQGTQVTVSS | low polyreactivity
43 | QVQLVESGGGLVQAGGSLRLSCAPSGFSFRQYAMGWYRQAPGKERELVAAISSSGGRTYYADSVKGRCTISRDNAKNTVYLQMNSLKPEDSAVYYCNARAWLRGEYGEGYWGQGTQVTVSS | high polyreactivity
